Assay type in all cases: biochemical, Piper nigrum
Substrate in series [1]: C1CCNCC1
Description: HPLC-UV/Vis and LC-MS of piperine isomer formation. To be noted: co-substrate piperoyl-CoA, pH 8.0, 30 mM Tris/HCl, 1 mM DTT. An excerpt:
(§1) HPLC-UV/Vis and LC-MS of piperine isomer formation on piperamide synthase (PipBAHD1)

Substrate in series [2]: CC(C)(COP(=O)(O)OP(=O)(O)OC[C@H]1O[C@@H](n2cnc3c(N)ncnc32)[C@H](O)[C@@H]1OP(=O)(O)O)[C@@H](O)C(=O)NCCC(=O)NCCSC(=O)/C=C/C=C/c1ccc2c(c1)OCO2
Description: HPLC-UV/Vis and LC-MS of piperine isomer formation. To be noted: co-substrate piperidine, pH 8.0, 30 mM Tris/HCl, 1 mM DTT.
Text: as §1

Substrate in series [3]: C1CCNCC1
Description: HPLC-UV/Vis and LC-MS of piperine (plus isomers) formation. To be noted: co-substrate piperoyl-CoA, pH 8.0, 30 mM Tris/HCl, 1 mM DTT. An excerpt: (§2) HPLC-UV/Vis and LC-MS of piperine (plus isomers) formation on piperine synthase (PipBAHD2)

Substrate in series [4]: CC(C)(COP(=O)(O)OP(=O)(O)OC[C@H]1O[C@@H](n2cnc3c(N)ncnc32)[C@H](O)[C@@H]1OP(=O)(O)O)[C@@H](O)C(=O)NCCC(=O)NCCSC(=O)/C=C/C=C/c1ccc2c(c1)OCO2
The series is described as above. To be noted: co-substrate piperidine, pH 8.0, 30 mM Tris/HCl, 1 mM DTT.
Text: as §2

Broadly, the Km is the substrate concentration at which the rate is half of its maximum. For orientation: kcat means the maximal rate divided by the concentration of active sites. In general, kcat/Km refers to the second-order rate constant that governs catalysis at low substrate concentration.

B1: piperamide synthase (PipBAHD1) (Piper nigrum) (protein)
chain: MASSQLEFNVERKQPELLGPAEPTPYELKELSDIDDQDGVRLFLTAIFIYPPPTKTSMPTRKTDPASDIRRGLSKAMVYYYPFAGRIREGPNRKLSVDCTGEGIVFCEADADIRLDGLGDVEVLRPPYPFIDKMTLGEGSAILGAPLVYVQVTRFACGGFIITGRFNHVMADAPGFTMFMKAAADLARGATVPMPLPVWERERYRSRVPPRVTFAHHEYMHVDDPPPRPTSEPWSLHSAFFTKADVATLRAQLPADLRKAATSFDIITACMWRCRVSALQYGPDEVVRLIVAVNSRTKFDPPLTGYYGNGLMLPAAVTEAGKLVGSDLGYAVELVREAKGKVTEEYVRSAADFLVLNGRVHFVVSNTFLVSDLRRLIDLANMDWGWGKAVSGGPVDVGENVISFLATSKNSAGEEGAVVPFCLPDSALGRFTSEVKKLVCFRPLENAAASNPDHGYMSRM
notes: full-length cDNA from immature fruits, N-terminal His10 tag (pET-16b), E. coli LEMO21, IMAC
Regarding B1, in series [1], the Km was determined as 8.69 ± 3.6 mM, the catalytic constant (kcat) is 0.27 ± 0.02 s⁻¹ and the kcat/Km is 31.1 M⁻¹ s⁻¹. Moreover, in series [2], the Km was determined as 0.196 ± 0.009 mM, the kcat worked out at 0.35 ± 0.01 s⁻¹ and the catalytic efficiency (kcat/Km) is 1790 M⁻¹ s⁻¹.

B2: piperine synthase (PipBAHD2) (Piper nigrum) (protein)
chain: MAPSSQLEFNVVRKQPELLPPAEPTPFEWKELSDIDDQDGLRLHISGFFIYPPSTMSNVGRDNVARDIRLGLSKAMVFYYPLAGRIREGPNRKLSVECTGEGIMYCEADADVRLEQFGDIGALSMPFPFMDKVMFETVDDGILGTPLMYFQSTRFICGGIVIAGCYNHAIADGLGFYMFMAAAAQLARGAASPTPLPVWQRERLLSRVPPRVTFIHHEYIHDTPKTETANPLDNEPWPLHSIFFTRVDVAALRAQLPGHLRKSATSFEIISACLWRCRTAALRFAPDELSRLIIAVNARTKFGPPLPQGYYGNSIMLPMVVSEAGKLVLSGLGYAVELVIEAKGKVTEEYVKSVADYLVLNGRPHYVVTNTYLVSDLRQLVEMSKFDWGWGKPAYVGPADVGENAISFLATLKNGEEEGVVVPIRLPESAVGRFKSEVSKMVSFGCLEDVKPNRDGYLSRM
notes: as for B1
Consider B2, for which the Km in series [3] was 7.6 ± 0.5 mM. In addition, in series [4], the Km came to 0.342 ± 0.060 mM, the kcat is 1.01 ± 0.12 s⁻¹ and the kcat/Km is 2950 M⁻¹ s⁻¹.

Source of the values: publication PMC8032705, “Identification and characterization of piperine synthase from black pepper, Piper nigrum L” (Communications Biology, 2021).
